From the DeepSol protein solubility set

Experiment: soluble on expression in E. coli; label from the status in PepcDB or PDB records

Soluble on expression in E. coli, not soluble:
VVSIVDTLMFDTGRAEVKPDFQKKLVEIGEILKTIDNYIRIEGHTDNTPISNSQYASNIELGSARSNNVEHLFIDVSKIPVTQMYTVSYADTRPVADNNSEAGKARNRRVDIVILNSKFNAVEQESSGK
VGKMTPDFLGSLSTTLSWKNLSLHIATDMRFGGLVASYSNLYGTQAGWIKSSLKWRDPEHGGLSWTSQYGDSKGISYGDGVIPDGVFKNGTFATLVDGTKMDVSGMSYKQLVAEGKLEPTHAGTYHVNRAAWGQNTIFDTWVHELNYIALREITLSYRFPKSVASKFGAQGLGLSFSARNLGYLYNSLPNHLNPESVRGNTASEFRIRGYEPYTANYMMTINVDF
QWGAPEAQKMARDLRSFALSGGSIVSVRAGVWARDANDFIFIGKVEDDKLYALNMWRFDDDKNLEKVIFAEEVDYQQDNNWLMRDVQITNMQDENVISKQEMDQMEWHTSLAPDKLAVVTVKPEELSLSGLYDYVTYLKASEQDASRYELAFWRKLTQP
MKLEIGYNHPFEIRKERYESDHVCNFSVLYISDLHLTVFSKDICTRLSKCIQELNPTIIILGGDYIDCRNGWDYLSTFFKFLSARKNVFSIAGNHDYFYGIDEIKKLIESNNIHWLENQSAVVNIQEYNILLTGNNETQSSIPADFNILCLHKPVSLDAFKIPYHIAFAGHLHGCQCVFWQNENGLYPGRFFYTFNFLRRQVKNCLYLISKGLGDTLPIRFNCKKDIIFVEIKNNSNKLEHHHHHH
LLLYIHGFNSSPLSMKANLMREYCAQHRPDIKVIVPQLPCFPEQAAQLLLDIVEQYKDDYNIGLVGSSLGGYMSTWLNAKYGFKAVVVNPAVKPYELLVDYLGEQTNPYTRETYTLEACHIDELKALDVQSIASPHSFWLLQQTEDEVLDYRQAVDKFAKAKQTVEQGGDHSFVGFERYPAKIIEFLE
MSDAGGDVQVAPAAVAQGPMDKEGALRAVLRAAHHADGLAKGLHETCKALDKREAHFCVLAENCDEPQYVKLVETLCAEHQIPLIKVADKKIIGEYCGLCKYDKEGKARKVVGCSSAVVTNWGNEEQGRAILTDYFASKN
MGSDKIHHHHHHMPIKALRLKAMQLKATRLKAKLLQARLLQASALLGTSLNLVAMAAPYNAINESIDDGFVEAGDILVIAIPATGYLASWLYDDFEGAKQLTFSVLTTQLIVEATKSTVGRYRPNSNVAGGSYKSFPSGHSAGAFSGAAFLQSRYGSRWGIPAYLGAGVVAASRVHGRRHYADDVLGGAGIAILVNQYFVERYDNQGLAVSLFPNDEGGLQFNLSMPLDGPLNGRAGPRAEKRAQPAVHGPKRHRFAVNLGFNMTDSLGMAGAKDLLPDSQLVDDHQPFSYLLYEYLDSSKTSLQLELSPNETRLFGTLSGEFELDGKQYQDGDSLYLAFKQWSLGSQYFYRFAPQGDWHFKLGGGLYAYWVELEVDYLTGGQYAGEGSLEVMPSIEGRTRYHIGGGLSADAMARFQAWSGNQLVAAEAGLSYALGEEWVMGLKYAYSEAKWDALNMEYQTDSIVLTVENRF
MKFTWYGQSCFLIETSRNKKILLDPFNNSIGYPTFKGEADIITVSHHHFDHDFIDCVTNSPKVIDKPGDYKIDDITIKGIPSFHDNVHGAARGENTIFLFNIDGFNVCHLGDIGYVLSDLEVKSLGNVDVLMIPVGGNFTIDGAEAGQLCKKINSNIILPMHYKTTFTILPLEGAEKFIMSMKNAERLQSNVLTLDTKTNEKNQVKIFSIKLEHHHHHH
MGSDKIHHHHHHMRAVTAQAITEAVAKLCKEACYYVTPDMYAAFKKAEETEVSPLGKHILGRIIENADIAKREDMPICQDTGMTVVFVEIGQEVKIEGGYIEDAINAGVAKGYTEGYLRKSVVGEPLFNRANTKDNTPAVIHTRIVPGDKLKLKVCPKGFGSENKSVLKMLVPADGLEGVKKVFLEAVKLAGPNACPPMVIGVGIGGTMEKAAILAKKAAVRSVDSYNEHPDYAQLEKDLLEMACATGVGPQGLGGINTAVKVNIEWYPTHIAGLPVAVNINCHAARHADVTL

Soluble on expression in E. coli, soluble:
MKKLSGIIVLLLAGAALYLALKTSPIDPLAWDAPAAPQMTGVLEPNDTLMKAELLGQGQLHGPEDTAVDSQGRVYAGLADGRVVRLDASGKVETFVDTGGRPLGMDFDAAGNLILADAWKGLLRIDPQGKVETLATEADSVPFAFTDDLDIASDGRIYFSDASSKFHQPDYILDLLEARPHGRLLRYDPSTGKTEVLLKDLYFANGVALSANEDFVLVNETYRYRITRYWLKGEKAGQHEVFIDNLPGLPDNLQGDRKGTFWVALPTPRKADADFLHRHPWLKAQLAKLPRMFLPKPTAYGLVIAIDEQGRIVRSLHDTSGHHLRMITSAKPVGDQLYFGSLENDRIGRLAIPLEHHHHHH
MRKMMQNHQNTRFYFSASLILFNDKEMGKRSNYHHLVAFGGFFKALPDDGDLLTRFVTVEKLKKLPHCKFPFFPVKKPSLSPKMQPSYDADDFMRRGFFGSFIGFRKRSSSKPGELYAKNVTYSQIFSRHLID
MTLGLKDLYYAVCTEADGAESYGTPKKMAEAMSADLSVKTADGSLYADDTLSESVTEFASGTLKLGIKDLTPEVLAELLGQAVDKNSVVWAGKEDEPPYVAVGFRAKKTGGKYRYVWLLKAKFKVPSEKYETKGESIKFNTPDIEASFTTRKKDNLWKADFVGTEESAAAKTWFTAVPEKAAAMESVLEHHHHHH
MQIKTYKIKDICDIKRGRVISKLYIKNNPGEFPVYSSATVNNGEIGRIKDCDLKGEYVTWTTDGAQAGSVFYRNGQFNATNVCGILKVNNDEIYPKFLAYALRLKAPKFVNYACPIPKLMQGTLAEIELDFTSKKIQEKIATILDTFTELSAELSAELSAELSAELRERKKQYVFYSDYLLNPKNWK
MHHHHHHHHHGGPISKILVANRSEIAIRVFRAANELGIKTVAIWAEEDKLALHRFKADESYQVGRGPHLARDLGPIESYLSIDEVIRVAKLSGADAIHPGYGLLSESPEFVDACNKAGIIFIGPKADTMRQLGNKVAARNLAISVGVPVVPATEPLPDDMAEVAKMAAAIGYPVMLKASWGGGGRGMRVIRSEADLAKEVTEAKREAMAAFGKDEVYLEKLVERARHVESQILGDTHGNVVHLFERDCSVQRRNQKVVERAPAPYLSEAQRQELAAYSLKIAGATNYIGAGTVEYLMDADTGKFYFIEVNPRIQVEHTVTEVVTGIDIVKAQIHILDGAAIGTPQSGVPNQEDIRLNGHALQCRVTTEDPEHNFIPDYGRITAYRSASGFGIRLDGGTSYSGAIITRYYDPLLVKVTAWAPNPLEAISRMDRALREFRIRGVATNLTFLEAIIGHPKFRDNSYTTRFIDTTPELFQQVKRQDRATKLLTYLADVTVNGHPEAKDRPKPLENAARPVVPYANGNGVKDGTKQLLDTLGPKKFGEWMRNEKRVLLTDTTMRDGHQSLLATRMRTYDIARIAGTYSHALPNLLSLECWGGATFDVSMRFLTEDPWERLALIREGAPNLLLQMLLRGANGVGYTNYPDNVVKYFVRQAAKGGIDLFRVFDCLNWVENMRVSMDAIAEENKLCEAAICYTGDILNSARPKYDLKYYTNLAVELEKAGAHIIAVKDMAGLLKPAAAKVLFKALREATGLPIHFHTHDTSGIAAATVLAAVEAGVDAVDAAMDALSGNTSQPCLGSIVEALSGSERDPGLDPAWIRRISFYWEAVRNQYAAFESDLKGPASEVYLHEMPGGQFTNLKEQARSLGLETRWHQVAQAYADANQMFGDIVKVTPSSKVVGDMALMMVSQDLTVADVVSPDREVSFPESVVSMLKGDLGQPPSGWPEALQKKALKGEKPYTVRPGSLLKEADLDAERKVIEKKLEREVSDFEFASYLMYPKVFTDFALASDTYGPVSVLPTPAYFYGLADGEELFADIEKGKTLVIVNQAVSATDSQGMVTVFFELNGQPRRIKVPDRAHGATGAAVRRKAEPGNAAHVGAPMPGVISRVFVSSGQAVNAGDVLVSIEAMKMETAIHAEKDGTIAEVLVKAGDQIDAKDLLAVYGG
